T1: MBP-RacA (B. subtilis, UniProt P45870 1-184)
T1 sequence: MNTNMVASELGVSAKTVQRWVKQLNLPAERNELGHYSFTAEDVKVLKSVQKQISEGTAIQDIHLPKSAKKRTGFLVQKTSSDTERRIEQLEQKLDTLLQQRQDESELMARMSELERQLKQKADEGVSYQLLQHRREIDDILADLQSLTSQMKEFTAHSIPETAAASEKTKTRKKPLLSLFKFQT


Experiments:
SEC = biological target: the molecule itself; experiment: SEC
MBP-RacA = biological target: T1, MBP-RacA; experiment: density gradient flotation with liposomes

Row | binding result (MBP-RacA) | Binder | binding result (SEC)
1 |  | ΔC-DivIVA-MBP (domain or fragment) MPLTPNDIHNKTFTKSFRGYDEDEVNEFLAQVRKDYEIVLRKKTELEAKVNELDERIGHFANIEETLNKSILVAQEAAEDVKRNSQKEAKLIVREAEKNADRIINESLSKSRKIAMEIEELKKQSKVFRTRFQMLIEAQLDLLK | binds
2 |  | ΔN-DivIVA-MBP (domain or fragment) RKKTELEAKVNELDERIGHFANIEETLNKSILVAQEAAEDVKRNSQKEAKLIVREAEKNADRIINESLSKSRKIAMEIEELKKQSKVFRTRFQMLIEAQLDLLKNDDWDHLLEYEVDAVFEEKE | binds
3 | binds | DivIVA (natural protein) MPLTPNDIHNKTFTKSFRGYDEDEVNEFLAQVRKDYEIVLRKKTELEAKVNELDERIGHFANIEETLNKSILVAQEAAEDVKRNSQKEAKLIVREAEKNADRIINESLSKSRKIAMEIEELKKQSKVFRTRFQMLIEAQLDLLKNDDWDHLLEYEVDAVFEEKE | 
4 |  | DivIVA-MBP (natural protein) MPLTPNDIHNKTFTKSFRGYDEDEVNEFLAQVRKDYEIVLRKKTELEAKVNELDERIGHFANIEETLNKSILVAQEAAEDVKRNSQKEAKLIVREAEKNADRIINESLSKSRKIAMEIEELKKQSKVFRTRFQMLIEAQLDLLKNDDWDHLLEYEVDAVFEEKE | binds
